Molecular target: HCMV glycoprotein M (gM, UL100) in HCMV-infected cells (HCMV strain AD169)
Experiment: FRET or BRET

HCMV glycoprotein M (gM, UL100) in HCMV-infected cells (HCMV strain AD169), sequence (P16733 whole entry): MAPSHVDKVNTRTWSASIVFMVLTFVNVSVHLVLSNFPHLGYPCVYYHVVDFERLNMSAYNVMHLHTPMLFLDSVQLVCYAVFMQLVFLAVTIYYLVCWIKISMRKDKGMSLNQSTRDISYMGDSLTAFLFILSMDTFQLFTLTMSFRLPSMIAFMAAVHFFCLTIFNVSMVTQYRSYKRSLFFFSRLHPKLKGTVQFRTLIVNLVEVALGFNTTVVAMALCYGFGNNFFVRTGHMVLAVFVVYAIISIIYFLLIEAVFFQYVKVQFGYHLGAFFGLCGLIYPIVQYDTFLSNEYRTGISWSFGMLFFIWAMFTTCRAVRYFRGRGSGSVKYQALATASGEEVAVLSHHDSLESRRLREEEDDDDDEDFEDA

| Binder | average FRET efficiency [%] |
| --- | --- |
| myc-tagged FIP4 (FIP4-myc), full length (natural protein) MAGGAGWSGAPAALLRSVRRLREVFEVCGRDPDGFLRVERVAALGLRFGQGEEVEKLVKYLDPNDLGRINFKDFCRGVFAMKGCEELLKDVLSVESAGTLPCAPEIPDCVEQGSEVTGPTFADGELIPREPGFFPEDEEEAMTLAPPEGPQELYTDSPMESTQSLEGSVGSPAEKDGGLGGLFLPEDKSLVHTPSMTTSDLSTHSTTSLISNEEQFEDYGEGDDVDCAPSSPCPDDETRTNVYSDLGSSVSSSAGQTPRKMRHVYNSELLDVYCSQCCKKINLLNDLEARLKNLKANSPNRKISSTAFGRQLMHSSNFSSSNGSTEDLFRDSIDSCDNDITEKVSFLEKKVTELENDSLTNGDLKSKLKQENTQLVHRVHELEEMVKDQETTAEQALEEEARRHREAYGKLEREKATEVELLNARVQQLEEENTELRTTVTRLKSQTEKLDEERQRMSDRLEDTSLRLKDEMDLYKRMMDKLRQNRLEFQKEREATQELIEDLRKELEHLQMYKLDCERPGRGRSASSGLGEFNARAREVELEHEVKRLKQENYKLRDQNDDLNGQILSLSLYEAKNLFAAQTKAQSLAAEIDTASRDELMEALKEQEEINFRLRQYMDKIILAILDHNPSILEIKH | 27 |
| myc-tagged FIP3 (FIP3-myc) (natural protein) MASAPPASPPGSEPPGPDPEPGGPDGPGAAQLAPGPAELRLGAPVGGPDPQSPGLDEPAPGAAADGGARWSAGPAPGLEGGPRDPGPSAPPPRSGPRGQLASPDAPGPGPRSEAPLPELDPLFSWTEEPEECGPASCPESAPFRLQGSSSSHRARGEVDVFSPFPAPTAGELALEQGPGSPPQPSDLSQTHPLPSEPVGSQEDGPRLRAVFDALDGDGDGFVRIEDFIQFATVYGAEQVKDLTKYLDPSGLGVISFEDFYQGITAIRNGDPDGQCYGGVASAQDEEPLACPDEFDDFVTYEANEVTDSAYMGSESTYSECETFTDEDTSTLVHPELQPEGDADSAGGSAVPSECLDAMEEPDHGALLLLPGRPHPHGQSVITVIGGEEHFEDYGEGSEAELSPETLCNGQLGCSDPAFLTPSPTKRLSSKKVARYLHQSGALTMEALEDPSPELMEGPEEDIADKVVFLERRVLELEKDTAATGEQHSRLRQENLQLVHRANALEEQLKEQELRACEMVLEETRRQKELLCKMEREKSIEIENLQTRLQQLDEENSELRSCTPCLKANIERLEEEKQKLLDEIESLTLRLSEEQENKRRMGDRLSHERHQFQRDKEATQELIEDLRKQLEHLQLLKLEAEQRRGRSSSMGLQEYHSRARESELEQEVRRLKQDNRNLKEQNEELNGQIITLSIQGAKSLFSTAFSESLAAEISSVSRDELMEAIQKQEEINFRLQDYIDRIIVAIMETNPSILEVK | < 2 |
